Source: PMC3286859

Assays:
[1] = tested on: Cc1cc(=O)oc2cc(NC(=O)[C@H](CCCNC(=N)N)NC(=O)[C@H](Cc3ccccc3)NC(=O)OCc3ccccc3)ccc12; assay: purified protein; details: 100 mM sodium acetate pH 5.0, 1 mM EDTA, 2 mM DTT, no crammer added
[2] = target: recombinant Drosophila cathepsin B (Drosophila); assay: enzyme inhibition assay
[3] = target: Drosophila cathepsin L purified from fly head extracts (Drosophila melanogaster (endogenous in fly heads)); assay: enzyme inhibition assay

| Ki [2] | Ki [3] | Substance | Km [1] |
| --- | --- | --- | --- |
| 790 nM | 1.36 nM | Drosophila melanogaster crammer, recombinant wild type (monomer) (natural protein) |  |
| 18900 nM |  | crammer Y12A (natural protein) |  |
| 5400 nM |  | crammer Y20A (natural protein) |  |

Second part, the substance before the results:

| Substance | Ki [2] | Ki [3] | Km [1] |
| --- | --- | --- | --- |
| Drosophila cathepsin L (Drosophila melanogaster) |  |  | 3.85 µM |
| crammer C72S (natural protein) | 1870 nM |  |  |
| crammer F16A (natural protein) | 2260 nM |  |  |
